The supplement of paper PMC9170038

System: MS2 coat protein
Test: apparent KD of MS2 coat protein; designed switch direction (-1 OFF switch, 1 ON switch): -1; higher = weaker reporter binding
Method in brief: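 For each design, the apparent KD is the median over clusters of curves fitted to normalised cluster fluorescence. Clusters held RNA switches with common flanks, transcribed on Illumina chips by stalled E. coli RNA polymerase. These were titrated with SNAP-549-labelled MS2 coat protein, doubling from 0.7 or 1.5 nM to 3 µM, without input, with 200 uM small-molecule ligand, or with an oligonucleotide input.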

[1] = Eterna round: R95, input ligand: microRNA oligo, concentration not stated
[2] = Eterna round: R95, input ligand: FMN 200 uM
[3] = Eterna round: R95, input ligand: none
[4] = input ligand: microRNA oligo, concentration not stated

## UGCUGACGAGGAUAUACAUGAGGAUCACCCAUGUUGGUUCAGCGACUUCGGUCGCAAUGUAGAAGGCGUCAGCA [E3/9-A5] (Eterna round: R97, puzzle: Exclusion 3)
Input ligand: FMN 200 uM
  apparent KD of MS2 coat protein: 230 nM
Input ligand: none
  apparent KD of MS2 coat protein: 523 nM

## UGGAGUAUGUAGGAUAUUCAGGCAAAGAAAGCCGAAGAAGGACAUACUUGAGGAUCACCCAAGUUGUCCAAAAU [Zaanatatri] (Eterna round: R97, puzzle: Exclusion 6)
Input ligand: FMN 200 uM
  apparent KD of MS2 coat protein: 25.8 nM
Input ligand: none
  apparent KD of MS2 coat protein: 15.1 nM

## UGGCCACAUGAGGAUCACCCAUGUCAGGAUAUCGGAUAUAUUGUGGUUUUAAGACCAACGAGAAGGGACGGGUC [Eternabot (L1) Solution 9] (Eterna round: R97, puzzle: Exclusion 1)
Input ligand: FMN 200 uM
  apparent KD of MS2 coat protein: 119 nM
Input ligand: none
  apparent KD of MS2 coat protein: 139 nM

## UGGGAACGAGGAUAUCGAUGGUGGAACAUGAGGAUCACCCAUGUAUGAGAUAGUGUAGGGCGAGAAGGCGUUAAGU [JR_E5_Sub052] (puzzle: Exclusion 5)
[1]
  apparent KD of MS2 coat protein: 76.7 nM

## UGGGUUACAGGAUAUACAUGAGGAUCACCCAUGUCAUGUUUCGUGGCGGAUAGCUCGAGUAGAAGGGUGCAUCC [Diorus] (puzzle: Exclusion 3)
[1]
  apparent KD of MS2 coat protein: 36.6 nM

## UGGGUUACCCAUGGAAGUAACAUGAGGAUCACCCAUGUAGGGCAAGUUUUUUGUUCGUCAUAGGCCGUGGGUUUGGA [JR_SV3TOV1_Sub021] (puzzle: Sensor v3, turn-off variant 1)
[2]
  apparent KD of MS2 coat protein: 30.4 nM
[1]
  apparent KD of MS2 coat protein: 56.8 nM
[3]
  apparent KD of MS2 coat protein: 32.4 nM

## UGGUGUUACGUAGGAUAUUGUCAACAGGCAGUAGGAUAUGCGAAAGCAGAAGGACCGCCAACAGGCGAGAAGGACGGGUUACCU [pwkr exNG2 2xF7 2xFMN.8] (Eterna round: R96, puzzle: Exclusion NG 2)
Input ligand: FMN 200 uM
  apparent KD of MS2 coat protein: 136 nM
[4]
  apparent KD of MS2 coat protein: 145 nM
Input ligand: none
  apparent KD of MS2 coat protein: 211 nM

## UGGUUGUCAGGAUAUACGGUUUUUAACUUUAGUUUUAUAUUGUAGAAGGGACAUGAGGAUCACCCAUGUUACGU [LRO-Excl4-11-Bluer Omei Mod] (Eterna round: R97, puzzle: Exclusion 4)
Input ligand: FMN 200 uM
  apparent KD of MS2 coat protein: 29.5 nM
Input ligand: none
  apparent KD of MS2 coat protein: 26.5 nM

## UGUAACCGAGGAUAUACAUGAGGAUCACCCAUGUAAUGUAGUAUAGUGUAUGUAAGGUGUAGAAGGUGGGAUGU (Eterna round: R97, puzzle: Exclusion 3)
Input ligand: FMN 200 uM
  apparent KD of MS2 coat protein: 48.4 nM
Input ligand: none
  apparent KD of MS2 coat protein: 74.7 nM

## UGUAAGCUAGGAUAUGCUUUGGGAAAGCAUUCCUUCGAUAAACUUGAGGAUCACCCAAGUAGAAGGAGCUUACC [salish99_ex2_r4_008] (Eterna round: R97, puzzle: Exclusion 2)
Input ligand: FMN 200 uM
  apparent KD of MS2 coat protein: 12.7 nM
Input ligand: none
  apparent KD of MS2 coat protein: 10.9 nM

## UGUACGAUGCGUGCUGACAUGCGUCGUGCAGCAGGUGAUACAUGAGGAUCACCCAUGUCCUCAUUUGCUCGUCUUAU [Mat - Sensor v3 - Turn-off var 2 - D23] (puzzle: Sensor v3, turn-off variant 2)
[2]
  apparent KD of MS2 coat protein: 53.5 nM
[1]
  apparent KD of MS2 coat protein: 218 nM
[3]
  apparent KD of MS2 coat protein: 55.6 nM

## UGUACUAUGCGAGCUGACUUGCGUAGUGCAGCAGGUGUAACAUGAGGAUCACCCAUGUCCUCAUUUGCUCGUCUUAA [Mat - Sensor v3 - Turn-off var 2 - D10] (puzzle: Sensor v3, turn-off variant 2)
[2]
  apparent KD of MS2 coat protein: 458 nM
[1]
  apparent KD of MS2 coat protein: 196 nM
[3]
  apparent KD of MS2 coat protein: 388 nM

## UGUCUGUCAGGAUAUCCAGAAGAGAAGAAAGUAAGAUGAGUGGAGAAGGGACAUGAGGAUCACCCAUGUAAUUA [My frist] (puzzle: Exclusion 4)
[1]
  apparent KD of MS2 coat protein: 29.7 nM

## UGUGCGUAUGUGAGGAUAUGCUGGUCCUUGGAUCGGCAGAAGGCACAUGAGGAUCACCCAUGUGGUGUCGUACG [salish99_Bmod_ex4_079] (puzzle: Brourd's mod of Exclusion 4)
[2]
  apparent KD of MS2 coat protein: 191 nM
[1]
  apparent KD of MS2 coat protein: 82.8 nM
[3]
  apparent KD of MS2 coat protein: 142 nM

## UGUGUACAUGAGGAUCACCCAUGUCAGGAUAUCUAGGCUCUCUCACUGACAACAGCCAAGAGAAGGGACGAGGU [EX1 B.7] (Eterna round: R97, puzzle: Exclusion 1)
Input ligand: FMN 200 uM
  apparent KD of MS2 coat protein: 36.3 nM
Input ligand: none
  apparent KD of MS2 coat protein: 29.5 nM

## UGUUGUCGCGCAGGAUAUGAGGAUCACCCAUAUACAGGAUAUGAAAAGAAGGGUCUGAGGAUUACCCAGAAGGGCGGGACAACU [pwkr exNG2 2xF5 2xFMN.26] (Eterna round: R96, puzzle: Exclusion NG 2)
Input ligand: FMN 200 uM
  apparent KD of MS2 coat protein: 386 nM
[4]
  apparent KD of MS2 coat protein: 59.1 nM
Input ligand: none
  apparent KD of MS2 coat protein: 88 nM

## UGUUGUCGCGCAGGAUAUGGCCAACAGGCCCUAGGAUAUCGGAAACGAGAAGGAGCGCCAACAGGCGAGAAGGGCGGGACAACU [pwkr exNG2 2xF7 2xFMN.18] (Eterna round: R96, puzzle: Exclusion NG 2)
Input ligand: FMN 200 uM
  apparent KD of MS2 coat protein: 85.9 nM
[4]
  apparent KD of MS2 coat protein: 912 nM
Input ligand: none
  apparent KD of MS2 coat protein: 995 nM

## UGUUGUCGCGUAGGAUAUGAGGAUCACCCAUAGAAGGAUAUCGAAAGAGAAGGUCUGAGGAUUACCCAGAAGGACGGGACAACU [pwkr exNG2 2xF5 2xFMN.14] (Eterna round: R96, puzzle: Exclusion NG 2)
Input ligand: FMN 200 uM
  apparent KD of MS2 coat protein: 682 nM
[4]
  apparent KD of MS2 coat protein: 160 nM
Input ligand: none
  apparent KD of MS2 coat protein: 151 nM

## UGUUGUCGCGUAGGAUAUGAGGAUCACCCAUAUAGAGGAUAUGAAAAGAAGGCUCUGAGGAUCACCCAGAAGGACGGGACAACU [pwkr exNG2 2xF5 2xFMN.24] (Eterna round: R96, puzzle: Exclusion NG 2)
Input ligand: FMN 200 uM
  apparent KD of MS2 coat protein: 1720 nM
[4]
  apparent KD of MS2 coat protein: 214 nM
Input ligand: none
  apparent KD of MS2 coat protein: 207 nM

## UGUUGUUACGCAGGAUAUGAGGAUCACCCAUAGUAGGAUAACGAAAGUGAAGGACUGAGGAUUACCCAGAAGGGCGGGUUAACA [pwkr exNG2 2xF5 2xFMN.3] (Eterna round: R96, puzzle: Exclusion NG 2)
Input ligand: FMN 200 uM
  apparent KD of MS2 coat protein: 1010 nM
[4]
  apparent KD of MS2 coat protein: 101 nM
Input ligand: none
  apparent KD of MS2 coat protein: 154 nM

## UGUUGUUACGCAGGAUAUGUAUGAGGAUCACCCAUAAGAGUUGAUGUACCAUGAGGAUCACCCAUGUAGAAGGGCGGGUUAACA [pwkr exNG2 2xF5 1xFMN.9] (Eterna round: R96, puzzle: Exclusion NG 2)
Input ligand: FMN 200 uM
  apparent KD of MS2 coat protein: 365 nM
[4]
  apparent KD of MS2 coat protein: 194 nM
Input ligand: none
  apparent KD of MS2 coat protein: 234 nM

## UGUUGUUCAGGAUAUGAUGUAUAAUACAUGAGGAUCACCCAUGUAGAUCCUGAAUUAACAUCAGAAGGGAAUGUUG [salish99_ex5_r4_102] (Eterna round: R97, puzzle: Exclusion 5)
Input ligand: FMN 200 uM
  apparent KD of MS2 coat protein: 19.4 nM
Input ligand: none
  apparent KD of MS2 coat protein: 15.2 nM

## UGUUGUUCAGGAUAUGAUGUAUAAUACAUGAGGAUCACCCAUGUAGAUCCUGAUUUGGCGUCAGAAGGGAAUGUUG [salish99_ex5_r4_106] (Eterna round: R97, puzzle: Exclusion 5)
Input ligand: FMN 200 uM
  apparent KD of MS2 coat protein: 41 nM
Input ligand: none
  apparent KD of MS2 coat protein: 33.2 nM

## UGUUGUUGUUUCCGUUCUUACAUGAGGAUCACCCAUGUUUCUUGUCGUGCUCGCGUUGCUCGUCAGACUACCUGUUG [salish99_TOv1_r3_065] (puzzle: Sensor v3, turn-off variant 1)
[2]
  apparent KD of MS2 coat protein: 93.4 nM
[3]
  apparent KD of MS2 coat protein: 151 nM

## UUAAAUCAUGUAGGAUAUGCGUGGAGAAACUAUGCAGAAGGACAUGAGGAUCACCCAUGUGCUUCCGUCUGCGUACAGAUGGUA [Mat - Exclusion NG 1 - Mod of JL - D8] (Eterna round: R96, puzzle: Exclusion NG 1)
[4]
  apparent KD of MS2 coat protein: 21.1 nM
